Experimental data reported in patent US20250051437A1 (University of California, published 2025).

Molecular target: T1, human CDH17-mGFP fusion protein overexpressed on HEK293T cells (clone G11) (human, UniProt Q12864 23-832)
T1 construct: also called HEK293T CDH17mGFP Clone G11; HEK293T Human CDH17mGFP G11; not shown: mGFP fluorescent protein fused to CDH17
Test: KinExA, cell-based, HEK293T human CDH17mGFP G11 (same value as r12)
Method: The cell-based antibody affinity (KD) of the anti-CDH17 antibodies was measured by KinExA 4000 (Sapidyne Instrument, Boise, Idaho). Briefly, HEK293T overexpressing CDH17-fluorescent protein fusion (i.e., human CDH17-mGFP, monkey CDH17-mGFP, mouse CDH17-mGFP or rat CDH17-mGFP) were detached with Versene and equilibrated with either 50 pM, 200 pM, 20 nM, or 50 nM antibody in 2% FBS/DMEM at 4° C. overnight. The cell concentration started at 5×10⁶ cells/mL or 1×10⁷ cells/mL and 2-fold serial dilutions were performed up to 10 points. The next day, the cells were centrifuged at 1500 rpm for 10 min and the supernatants were saved. […] In contrast, while the humanized anti-CDH17 antibody, 07-0653-h43, fails to bind mouse CDH17 protein, it binds rat CDH17 protein equally well as to human and monkey CDH17 protein such that its Kp is less than about 1 nM for human, monkey and rat CDH17 proteins with overlapping 95% confidence interval values.

B1: humanized anti-CDH17 antibody 07-0663-h7 (antibody, human IgG1, kappa, V domains shown)
VH: QVQLVQSGAEVKKPGSSVKISCKVSGYTFTDHTIHWMRQAPGQGLEWIGYIFPRDDIVVYAQKFQGRATLTADKSTSTAYMELSSLRSEDTAVYYCARPPYYYSRNFYFDYWGQGTTLTVSS
VL: DIQMTQSPSSLSASVGDRVTITCRVSSIISSSKLHWYQQKPGKAPKPLIYGTSTLASGVPSRFSGSGSGTDYTLTISSLQPEDFATYYCQQWSNYPFTFGQGTKLEIKR
notes: Human IgG1 / kappa
Question: Which Kd does the source give for B1 here?
Answer: Its Kd is 0.152 nM.
